What was measured:
plasmid DNA (pCMVbeta) = assay: Gel mobility shift assay of DNA binding; settings: 50 to 1600 ng of protein, 140 ng DNA
Protocol: Gel mobility shift assays were conducted to evaluate the stoichiometry of binding of plasmid DNA (pCMVbeta) to the THb-Kn conjugates. This gel electrophoretic method is based on the observation that the migratory properties of the DNA are altered upon binding protein. Neither proteins nor DNA-protein complexes in which protein constitutes a significant part of their mass enter 1% agarose gels. If mixtures with an increasing THb-Kn to DNA ratio are analyzed, it is observed that the DNA band disappears at and above the ratio that corresponds to the stoichiometry of the complex. For each of the four conjugates and for the THb-K26kDa-Hp complex, solutions containing from 0.4 to 6400 ng of the conjugate (this weight based on the hemoglobin component) in 32 μL of 20 mM HEPES pH 7.3 containing 150 mM NaCl were prepared. […] The samples (15 μL) were analyzed on a 1% agarose gel containing ethidium bromide (0.2 μg/mL). The amount of conjugate which prevented DNA entry into the gel was determined.
FIG. 4A (left) and 4B (right) are depictions of gel mobility shift assays of haptoglobin-hemoglobin-DNA conjugates produced according to Example 4. […] The results for THb-K26kDa are in good agreement with the fluorescence quench assay which indicated 86% of fluorescence decrease at the same THb-K26kDa to DNA ratio. […]

haptoglobin 1-1 = target: T1, haptoglobin 1-1 (Homo sapiens, UniProt P00738); assay: Complex formation of modified hemoglobins with haptoglobin 1-1 (size exclusion / anion exchange chromatography); format: binding; settings: THb-PQ mixture with haptoglobin 1-1, room temperature, 21 hours
T1 construct: Hp 1-1 is composed of two α^1β dimers and has a molecular weight of about 98 kDa
T1 sequence (P00738 19-347 isoform P00738-2 limits assumed): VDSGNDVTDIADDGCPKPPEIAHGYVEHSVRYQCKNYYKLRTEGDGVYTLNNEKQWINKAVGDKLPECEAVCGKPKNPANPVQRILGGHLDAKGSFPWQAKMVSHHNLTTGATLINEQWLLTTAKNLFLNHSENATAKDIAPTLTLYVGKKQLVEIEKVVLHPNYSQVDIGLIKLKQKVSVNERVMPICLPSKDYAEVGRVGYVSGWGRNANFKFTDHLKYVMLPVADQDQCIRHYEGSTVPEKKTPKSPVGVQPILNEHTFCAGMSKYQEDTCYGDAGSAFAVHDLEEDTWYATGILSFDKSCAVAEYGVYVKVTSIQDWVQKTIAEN
T1 sequence (P00738 103-347 isoform P00738-2 limits assumed): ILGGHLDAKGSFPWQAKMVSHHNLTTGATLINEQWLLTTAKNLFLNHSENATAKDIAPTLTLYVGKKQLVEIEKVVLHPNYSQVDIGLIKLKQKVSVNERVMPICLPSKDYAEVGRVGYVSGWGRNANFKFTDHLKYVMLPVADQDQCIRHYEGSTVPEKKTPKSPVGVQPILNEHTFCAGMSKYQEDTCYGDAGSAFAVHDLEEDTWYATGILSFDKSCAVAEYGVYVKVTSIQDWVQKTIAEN

rat haptoglobin = target: T2, rat haptoglobin (Rattus norvegicus, UniProt P06866); assay: Binding of modified human Hb ([3H]-NEM-Hb) to rat haptoglobin in plasma (SEC)
T2 construct: combined with rat serum containing haptoglobin; from tissue; host or cells: rat serum
T2 sequence (P06866 19-101 limits assumed): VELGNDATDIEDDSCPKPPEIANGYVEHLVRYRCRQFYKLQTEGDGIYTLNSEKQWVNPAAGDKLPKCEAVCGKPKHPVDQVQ
T2 sequence (P06866 103-347 limits assumed): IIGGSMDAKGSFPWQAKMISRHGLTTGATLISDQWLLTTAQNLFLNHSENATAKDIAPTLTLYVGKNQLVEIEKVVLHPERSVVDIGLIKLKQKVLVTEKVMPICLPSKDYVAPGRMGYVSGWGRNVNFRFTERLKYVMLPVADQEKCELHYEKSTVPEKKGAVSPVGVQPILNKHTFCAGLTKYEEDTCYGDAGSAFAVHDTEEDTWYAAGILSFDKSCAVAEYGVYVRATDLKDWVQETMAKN
Protocol: 1 mCi of ^3H-N-ethylmaleimide ([^3H]-NEM) in pentane was evaporated in 0.5 mL phosphate buffer, and 25 mg of Hb in 1 mL buffer was added giving a final NEM:Hb ratio of 0.06:1, or 37 μCi/mg Hb. RP HPLC analysis after 24 hours at 4° C. indicated incorporation of the majority of the radiolabel into a modified beta peak. After 47 hr, a 15-fold excess (over βCys93 thiol) of non-radiolabeled NEM was added. Salts and unbound NEM were removed by gel filtration, and the final concentration adjusted to 10.2 mg Hb/mL. A small portion of this material (^3H-NEM-Hb) was then combined with rat serum containing haptoglobin to determine if all radiolabeled components bound to Hp. The Hb-binding capacity of the rat serum was adjusted to […] Hb/mL serum. 0.5 and 2.0 equivalents of ^3H-NEM-Hb, based on Hb-binding capacity, were combined with serum and analyzed -by size exclusion chromatography eluted under dissociating, non-denaturing conditions using 0.5 M MgCl2, 25 mM Tris pH 7.4 (FIG. 15). In the ^3H-NEM-Hb preparation, all radioactivity was associated with a 32 kDa peak. […] 7.3% of the radioactivity combining with plasma components appears in a high MW peak at 22 minutes.

[1] = Biodistribution of modified Hb and haptoglobin complexes in rat; settings: for AUC Liver / AUC Plasma: dose = ug Hb/g body weight, no extrapolation to time zero
Protocol: The ability of Hp to target modified Hb to the liver was measured in a radioisotope biodistribution study. Two test articles were prepared from purified human HbA0 modified with tritium-labeled N-ethylmaleimide ([^3H]-NEM-Hb): [^3H]-NEM-Hb alone in Ringer's lactate, and [^3H]-NEM-Hb complexed to a slight excess of rat haptoglobin in rat plasma. Three treatment groups were analyzed; (A) normal rats received the modified Hb-haptoglobin complex in plasma, (B) normal rats received the modified Hb only (approximately twice the Hb-binding capacity of the rat), and (C) haptoglobin-depleted rats received the modified Hb only. Approximately 3 mg of Hb were administered to conscious Sprague-Dawley rats in each case. Liver and plasma samples were collected at 30, 60 and 120 minutes post-administration and radioactivity counted after solubilization and quenching.

[2] = 30 minutes, haptoglobin-depleted rats (group C)
[3] = 30 minutes, normal rats (groups A, B)
[4] = haptoglobin-depleted rats (group C)

Row | Substance | DNA binding (change in DNA migration) (plasmid DNA (pCMVbeta)) | reacted with Hp (anion exchange chromatography) (haptoglobin 1-1) | capability of all components to bind rat haptoglobin in plasma (rat haptoglobin) | radioactivity appearing in the Hb-haptoglobin peak (rat haptoglobin; 0.5 eq. based on Hb-binding capacity of rat serum, SEC) | binding state at haptoglobin saturation (rat haptoglobin; 2.0 eq. based on Hb-binding capacity of rat serum, SEC) | radioactivity combining with plasma components appearing in high MW peak at 22 minutes (rat haptoglobin; rat serum, SEC) [%] | dose in the plasma and liver compartments relative to groups A and B [1, 2] | total dose in the liver [1, 2] [%] | dose in the plasma and liver compartments [1, 3] [%] | total dose in the liver [1, 3] | liver to plasma concentration/dose ratio ([1]; 120 minutes, normal rats (groups A, B)) | liver content relative to group C ([1]; 120 minutes, normal rats vs haptoglobin-depleted rats given modified Hb only) [fold] | AUC Liver [1, 4] [ug Hb · min/g/dose] | AUC Plasma [1, 4] [ug Hb · min/mL/dose] | liver uptake (area under distribution curve) relative to group C ([1]; normal rats (groups A, B) vs haptoglobin-depleted rats) | AUC Liver ([1]; normal rats (groups A, B)) [ug Hb · min/g/dose] | AUC Plasma ([1]; normal rats (groups A, B)) [ug Hb · min/mL/dose]
1 | THb: TTDS (trimesoyl tris(3,5-dibromosalicylate)) cross-linked hemoglobin, hydrolyzed, without attached agent [reference compound] | does not bind DNA | 74% | – | – | – | – | – | – | – | – | – | – | – | – | – | – | –
2 | unmodified hemoglobin: unmodified (uncross-linked) hemoglobin remaining in the THb-PQ product mixture | – | all | – | – | – | – | – | – | – | – | – | – | – | – | – | – | –
3 | [^3H]-NEM-Hb: purified human HbA0 modified with tritium-labeled N-ethylmaleimide; given alone to groups B and C | – | – | capable of binding rat haptoglobin in plasma | all radioactivity appeared in the Hb-haptoglobin peak | haptoglobin is saturated and excess ^3H-NEM-Hb remains unbound | 7.3 | roughly half that amount | 11 | 60 | approximately 20% | approximately 4 times | 2 | 234.0 | 163.0 | approximately twice that of group C | 510.4 | 284.2

Source: patent publication US6479637B1, “Hemoglobin-haptoglobin complexes” (Hemsol Inc., priority 1998, dated 2002)
